We go through one molecule from US6429014B1, “Monoterpene synthases from grand fir (Abies grandis)” (Washington State University Research Foundation, priority 1997, dated 2002).

Series [1] in a line: Monoterpene synthase assay and product identification with extracts of E. coli expressing Grand fir cDNA clones (Example 3). It is filed as biochemical. The procedure: For expression, bacterial strains E. coil XLOLR/pAG3.18, E. coil XLOLR/pAG3.48, E. coli XL1-Blue/pGAG2.2, E. coli XL1-Blue/pGAG3.18, and E. coil BL21(DE3)/pSBAG10were grown to A600=0.5 at 37° C. in 5 ml of LB medium (Sambrock, J., Fritsch, E. F., and Maniatis, T. (1989) Molecular Cloning: A Laboratory Manual, 2d Ed., Cold Spring Harbor Laboratory, Cold Spring Harbor, N.Y.) supplemented with 100 μg ampicillin/ml or 30 μg kanamycin/ml as determined by the vector. Cultures were then induced by addition of 1 mM isopropyl-1-thio-β-D-galactopyranoside and grown for another 12 h at 20° C. Cells were harvested by centrifugation (2000×g, 10 min) and resuspended in either 1 ml monoterpene synthase assay buffer [50 mM Tris/HCl (pH 7.5), 500 mM KCl, 1 mM MnCl2, 5 mM dithiothreitol, 0.05% (w/v) NaHSO3 and 10% (v/v) glycerol], 1 ml sesquiterpene synthase assay buffer [10 mM dibasic potassium phosphate, 1.8 mM monobasic potassium phosphate (pH 7.3), 140 mM NaCl, 10 mM MgCl2, 5 mM dithiothreitol, 0.05% (w/v) NaHSO3 and 10% (v/v) glycerol], or 1 ml diterpene synthase assay buffer [30 mM Hepes (N-2-hydroxyethylpiperazine-N-′2-ethanesulfonic acid, pH 7.2), 7.5 mM MgCl2, 5 mM dithiothreitol, 10 µM MnCl2, 0.05% (w/v) NaHSO3 and 10% (v/v) glycerol].
Cells were disrupted by sonication (Braun-Sonic 2000 with microprobe at maximum power for 15 seconds at 0-4° C.), the homogenates were cleared by centrifugation (18,000×g, 10 min), and 1 ml of the resulting supernatant was assayed for monoterpene synthase activity with 2.5 μM of [1-^3H]geranyl diphosphate, for sesquiterpene synthase activity with 3.5 μM [1-^3H]farnesyl diphosphate, or for diterpene synthase activity with 5 μM [1- ^3H]geranylgeranyl diphosphate following standard protocols (Croteau, R., and Cane, D. E. (1985) Methods Enzymol. 110:383-405; LaFever, R. E., Stofer Vogel, B., and Croteau, R. (1994) Arch. Biochem. Biophys. 313:139-149; Dehal, S. S., and Croteau, R. (1988) Arch. Biochem. Biophys. 261:346-356). In the case of the monoterpene synthase and sesquiterpene synthase assays, the incubation mixture was overlaid with 1 ml pentane to trap volatile products. In all cases, after incubation at 31° C. for 2 h, the reaction mixture was extracted with pentane (3×1 ml) and the combined extract was passed through a 1.5 ml column of anhydrous MgSO4 and silica gel (Mallinckrodt 60 Å) to provide the terpene hydrocarbon fraction free of oxygenated metabolites. The columns were subsequently eluted with 3×1 ml of ether to collect any oxygenated products, and an aliquot of each fraction was taken for liquid scintillation counting to determine conversion rate.
Product Identification—To obtain sufficient product for analysis by radio-GLC (gas liquid chromatography), chiral capillary GLC and GLC-MS (mass spectrum/spectrometry), preparative-scale enzyme incubations were carried out. Thus, the enzyme was prepared from 50 ml of cultured bacterial cells by extraction with 3 ml of assay buffer as above, and the extracts were incubated with excess substrate overnight at 31° C. The hydrocarbon fraction was isolated by elution through MgSO4-silica gel as before, and the pentane eluate was concentrated for evaluation by capillary radio-GLC as described (Croteau, R., and Satterwhite, D. M. (1990) J. Chromatogr. 500:349-354), by chiral column capillary GLC (Lewinsohn, E., Savage, T. J., Gijzen, M., and Croteau, R. (1993) Phytochem. Anal. 4:220-225), and by combined GLC-MS [Hewlett-Packard 6890 GC-MSD with cool (40° C.) on-column injection, detection via electron impact ionization (70 eV), He carrier at 0.7 psi., column:0.25 mm i.d.×30 m fused silica with 0.25 μm film of 5MS (Hewlett-Packard) programmed from 35° C. (5 min hold) to 230° C. at 5° C./min].

Series [2] in a line: Terpene synthase assay and GC-MS / chiral GC product identification of recombinant enzymes expressed from pSBET in E. coli BL21(DE3) (Example 11). It is filed as biochemical. The settings on record: extracts of induced cells. The procedure: For functional expression, bacterial strains E. coli BL21(DE3)/pSAG2(M), E. coli BL21(DE3)/pSAG2(R), E. coli BL21(DE3)/pSAG3(R), E. coli BL21(DE3)/pSAG6(M), E. coli BL21(DE3/pSAG6(R), E. coli BL21(DE3)/pSAG8(M), E. coli BL21(DE3)/pSAG9(M), E. coli BL21(DE3)/pSAG11(M) and E. coli BL21(DE3)/SAG11(R) were grown to A600=0.5 at 37° C. in 5 ml of Luria-Bertani medium (Sambrook, J., Fritsch, E. F., and Maniatis, T. (1989) Molecular Cloning: A Laboratory Manual, 2nd Ed., pp. 7.20-7.43, Cold Spring Harbor, N.Y.) supplemented with 30 μg kanamycin/ml. Cultures were then induced by addition of 1 mM isopropyl-1-thio-β-D-galactopyranoside and grown for another 12 h at 20° C. Cells were harvested by centrifugation and disrupted by sonication followed by centrifugation, and the resulting soluble enzyme preparations were assayed for monoterpene, sesquiterpene and diterpene synthase activity using the appropriate radiolabeled substrate as described previously (Bohlmann, J., Steele, C. L., and Croteau, R. (1997) J. Biol. Chem. 272, 21784-21792). This assay involves the isolation and separation of terpene olefins and oxygenated terpenes by column chromatography on silica, followed by scintillation counting to determine conversion rate. GC-MS analysis is employed for product identification, by comparison of retention times and mass spectra to those of authentic standards (Bohlmann, J., Steele, C. L., and Croteau, R. (1997) J. Biol Chem. 272, 21784-21792); assignment of absolute configuration is based upon chiral column capillary GC and matching of retention time to that of the corresponding enantiomer (Lewinsohn, E., Savage, T. J., Gijzen, M., and Croteau, R. (1993) Phytochem. Anal. 4, 220-225). To insure production of sufficient material for identification, the standard assay (Bohlmann, J., Steele, C. L., and Croteau, R. (1997) J. Biol. Chem. 272, 21784-21792) was scaled up by a factor of 20.
Initially, the four pSBET plasmids pSAG6(M), pSAG8(M), pSAG9(M) and pSAG11(M), containing the full-length cDNA inserts of ag6 (SEQ ID NO:64), ag8 (SEQ ID NO:66), ag9 (SEQ ID NO:77) and ag11 (SEQ ID NO:68), respectively, were expressed in E. coli BL21(DE3). Extracts of the induced, transformed bacterial cells were assayed for monoterpene, sesquiterpene and diterpene synthase activity using the corresponding labeled C10, C15 and C20 prenyl diphosphate substrates (Bohlmann, J., Steele, C. L., and Croteau, R. (1997) J. Biol. Chem. 272, 21784-21792). […] Since it is known that the relatively large amino-terminal transit peptide of plant terpene synthases can impair expression of the functional preprotein in E. coli and promote the formation of intractable inclusion bodies (Williams, D. C., McGarvey, D. J., Katahira, E. J., and Croteau, R. (1998) Biochemisiry 37, 12213-12220), the“pseudomature” forms of ag6 (SEQ ID NO:64) and ag11 (SEQ ID NO:68) were prepared by truncation of the cDNAs to insert a starting methionine immediately upstream of their tandem arginine elements (R59R 60 for ag6 (SEQ ID NO:64), R^71R^72 for ag11 (SEQ ID NO:68)) for expression in E. coli BL21(DE3)/pSAG6(R) and E. coli BL21(DE3)/pSAG11(R). Similar truncations of previously characterized ag2.2 (SEQ ID NO:1) (myrcene synthase, R^64R^65) and ag3.18 (SEQ ID NO:3) ((−)-pinene synthase, (SEQ ID NO:5) R^64R^65) (Bohlmann, J., Steele, C. L., and Croteau, R. (1997) J. Biol. Chem. 272, 21784-21792) were prepared for expression from pSBET as controls for the possible alteration of product yield and distribution resulting from truncation.
Monoterpenes generated at preparative scale from geranyl diphosphate by the recombinant enzymes encoded by ag6 (SEQ ID NO:64), ag8 (SEQ ID NO:66), ag9 (SEQ ID NO:77) and ag11 (SEQ ID NO:68) were analyzed by GC-MS and chiral phase (β-cyclodextrin) capillary GC, and identified by comparison of retention times and mass spectra to authentic standards (FIGS. 6-9). […] The enzyme encoded by ag6 (SEQ ID NO:65) is therefore designated as (−)-1S,4R-camphene synthase. […]

B1: AG2.2: recombinant myrcene synthase from Grand fir encoded by cDNA clone AG2.2 (SEQ ID NO:1; protein SEQ ID NO:2) (protein, listed as Abies grandis)
chain: MALVSISPLASKSCLRKSLISSIHEHKPPYRTIPNLGMRRRGKSVTPSMSISLATAAPDDGVQRRIGDYHSNIWDDDFIQSLSTPYGEPSYQERAERLIVEVKKIFNSMYLDDGRLMSSFNDLMQRLWIVDSVERLGIARHFKNEITSALDYVFRYWEENGIGCGRDSIVTDLNSTALGFRTLRLHGYTVSPEVLKAFQDQNGQFVCSPGQTEGEIRSVLNLYRASLIAFPGEKVMEEAEIFSTRYLKEALQKIPVSALSQEIKFVMEYGWHTNLPRLEARNYIDTLEKDTSAWLNKNAGKKLLELAKLEFNIFNSLQQKELQYLLRWWKESDLPKLTFARHRHVEFYTLASCIAIDPKHSAFRLGFAKMCHLVTVLDDIYDTFGTIDELELFTSAIKRWNSSEIEHLPEYMKCVYMVVFETVNELTREAEKTQGRNTLNYVRKAWEAYFDSYMEEAKWISNGYLPMFEEYHENGKVSSAYRVATLQPILTLNAWLPDYILKGIDFPSRFNDLASSFLRLRGDTRCYKADRDRGEEASCISCYMKDNPGSTEEDALNHINAMVNDIIKELNWELLRSNDNIPMLAKKHAFDITRALHHLYIYRDGFSVANKETKKLVMETLLESMLF
Consider B1, for which the “prenyl diphosphate substrate utilized (geranyl, farnesyl, geranylgeranyl diphosphate tested)” value in series [1] (cell-free extract of induced E. coli, tritium labeled substrates) is “only with geranyl diphosphate as substrate”. In addition, in series [1] (radio-GLC, GLC-MS, chiral GLC), the “monoterpene products formed from geranyl diphosphate” value is reported as “the only product was shown to be myrcene”. Moreover, in series [2], the “terpene synthase activity on expression from pSBET in E. coli BL21(DE3)” value is listed as “high level expression of activity”.
